Test results: article PMC3832495, “Human Factor H-Related Protein 2 (CFHR2) Regulates Complement Activation” (PLoS ONE, 2013)
Blank lines part the entries; values can stand above or below the molecule they belong to.

How the values were obtained:
N-biotinylated C3b = N-biotinylated C3b (UniProt P01024); experiment: SPR; Biacore T200, 25°C; N-biotinylated C3b captured on a streptavidin-coated CM3 chip (520 RU); factor H or CFHR2 6.25–3200 nM in HBS-EP (10 mM HEPES pH 7.4, 150 mM NaCl, 50 µM EDTA, 0.005% P20), 30 µl/min; 1:1 model with mass transport term, KD from kinetic rate constants; one CFHR2 dimer regarded as one molecule
[1] = biological target: CFHR2/1-2 (N-terminal SCRs 1-2 of CFHR2) (human); experiment: SEC-MALS; static light scattering (miniDawn TREOS, Optilab T-rEX) with size exclusion chromatography on Superdex 200 or Superdex 75; proteins purified by Ni2+-chelate chromatography, deglycosylated, non-reduced
C3dg = biological target: T1, C3dg (UniProt P01024 955-1303); experiment: ELISA; C3b, C3c, C3dg or C3d (each 142 nM) coated on MaxiSorp plates; CFHR2 or factor H (each 0.07 µM) or CFHR2 fragments in equimolar amounts; detected with CFHR1 and factor H antisera; settings: both partners purified
T1 construct: C3dg, cleavage fragment of complement C3; cloned with the printed primer pair; source: E. coli, pET200/D-Topo expression system, purified (Ni-NTA Superflow Cartridge), dialyzed against DPBS

[2] = biological target: the molecule itself; experiment: SEC-MALS; static light scattering (miniDawn TREOS, Optilab T-rEX) with size exclusion chromatography on Superdex 200 or Superdex 75; proteins purified by Ni2+-chelate chromatography, deglycosylated, non-reduced
C3d = biological target: T2, C3d (UniProt P01024 1002-1303); experiment: ELISA; competition: C3b or C3dg (methods; C3d in results) 5 µg/ml immobilised; constant CFHR2 (5 µg/ml, 0.07 µM) and increasing factor H (5–50 µg/ml, 0.033–0.33 µM); factor H detected with factor H/1-4 antiserum, CFHR2 with mAb A72; settings: both partners purified
T2 construct: C3d, cleavage fragment of complement C3; source: bought: Complement Technology
T2 sequence (P01024 1002-1303): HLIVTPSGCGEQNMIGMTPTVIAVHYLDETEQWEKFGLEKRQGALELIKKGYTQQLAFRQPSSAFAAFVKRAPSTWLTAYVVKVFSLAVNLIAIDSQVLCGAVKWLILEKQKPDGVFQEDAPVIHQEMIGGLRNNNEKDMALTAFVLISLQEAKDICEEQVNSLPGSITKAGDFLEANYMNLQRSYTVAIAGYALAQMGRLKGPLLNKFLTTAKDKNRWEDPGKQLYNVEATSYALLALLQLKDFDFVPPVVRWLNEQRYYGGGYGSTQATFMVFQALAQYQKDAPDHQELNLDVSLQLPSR

T1 sequence (P01024 955-1303): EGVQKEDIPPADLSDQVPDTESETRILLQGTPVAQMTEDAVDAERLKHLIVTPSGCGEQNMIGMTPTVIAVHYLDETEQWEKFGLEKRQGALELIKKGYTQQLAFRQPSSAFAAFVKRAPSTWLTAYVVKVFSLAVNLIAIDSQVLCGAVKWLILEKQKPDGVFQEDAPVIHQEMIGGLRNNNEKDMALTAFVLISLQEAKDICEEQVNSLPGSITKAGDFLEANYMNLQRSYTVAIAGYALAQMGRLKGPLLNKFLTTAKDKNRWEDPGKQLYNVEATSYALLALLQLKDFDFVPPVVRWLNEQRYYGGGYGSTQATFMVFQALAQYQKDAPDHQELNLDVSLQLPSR

- Kd (N-biotinylated C3b): 570 nM
Molecule: Factor H (from UniProt P08603 19-1231) (natural protein)

- stoichiometry N [1]: 2
Molecule: CFHR2/1-2 (N-terminal SCRs 1-2 of CFHR2) (domain or fragment)

- binding result (C3dg): binds
- binding result (C3d): binds
- Kd (N-biotinylated C3b): 4200 nM
B1: Human factor H-related protein 2 (CFHR2), recombinant full length (natural protein, UniProt P36980 19-270, looked up)
chain: EAMFCDFPKINHGILYDEEKYKPFSQVPTGEVFYYSCEYNFVSPSKSFWTRITCAEEGWSPTPKCLRLCFFPFVENGHSESSGQTHLEGDTVQIICNTGYRLQNNENNISCVERGWSTPPKCRSTISAEKCGPPPPIDNGDITSFLLSVYAPGSSVEYQCQNLYQLEGNNQITCRNGQWSEPPKCLDPCVISQEIMEKYNIKLKWTNQQKLYSRTGDIVEFVCKSGYHPTKSHSFRAMCQNGKLVYPSCEEK
notes: Complement factor H-related protein 2 (CFHR2), human, four SCR domains; Secreted from Pichia; Several glycosylated forms; also called CFHR2 homodimer; CFHR2 dimer
- stoichiometry N [2]: 2
